From publication PMC8216470

Assays:
Assay in all cases: MST
Settings in all cases: MST with Cy5-labelled tRNA; buffer, salt, pH and temperature not in the material (protein storage: 10 mM Tris-HCl pH 8.0, 200 mM NaCl, 0.5 mM TCEP)
[1] = tested on: ADAT2;ADAT3 WT (Mus musculus;Mus musculus)
[2] = tested on: ADAT2;ADAT3-Δloop (Mus musculus;Mus musculus)
[3] = tested on: TadA (Escherichia coli)
[4] = tested on: ADAT2;ADAT3-ΔN (Mus musculus;Mus musculus)
[5] = tested on: ADAT2;ADAT3-V128I (Mus musculus;Mus musculus)
[6] = tested on: ADAT2;ADAT3-V128L (Mus musculus;Mus musculus)
[7] = tested on: ADAT2;ADAT3-V128M (Mus musculus;Mus musculus)

| Substance | Kd [1] [µM] | Kd [2] [µM] | Kd [3] [µM] | Kd [4] [µM] | Kd [5] [µM] | Kd [6] [µM] | Kd [7] [µM] |
| --- | --- | --- | --- | --- | --- | --- | --- |
| tRNAAla(AGC) | 8 | 6.7 | – | – | – | – | – |
| tRNAArg(ACG) | 3.7 | 6.5 | 6.6 | – | – | – | – |
| tRNAGly(CCC) | 3 | – | – | 35.8 | – | – | – |
| tRNAVal(AAC) | 3.5 | 6.7 | – | 44.5 | 3.3 | 4.2 | 2.5 |
